Reference: article PMC11303537, “Deciphering the allosteric regulation of mycobacterial inosine-5′-monophosphate dehydrogenase” (Nature Communications, 2024)
“And” between values parts separate entries of the source, which are not always exact repeats. Equal entries are not always repeated.

Biological target: the molecule itself
Experiment: cryo-EM structure; single-particle cryo-EM, MsmIMPDH octamer ~2.5-3.5 µM, 50 mM HEPES pH 7.4, 200 mM KCl, 5 mM DTT, 2 mM MgCl2 excess over nucleotides; datasets apo, ATP, ATP+IMP, ATP+GTP+IMP, ATP+ppGpp+IMP

B1: inosine-5′-monophosphate dehydrogenase from Mycobacterium smegmatis (enzyme, Mycobacterium smegmatis MC2 155, UniProt A0QSU3 1-513, looked up)
chain: MSIAESSVPIAVPVPTGGDDPTKVAMLGLTFDDVLLLPAASDVVPATADTSSQLTKRIRLRVPLVSSAMDTVTESRMAIAMARAGGMGVLHRNLPVAEQAGQVETVKRSEAGMVTDPVTCSPDNTLAEVDAMCARFRISGLPVVDDTGELVGIITNRDMRFEVDQSKPVSEVMTKAPLITAKEGVSAEAALGLLRRHKIEKLPIVDGHGKLTGLITVKDFVKTEQFPLSTKDSDGRLLVGAAVGVGDDAWTRAMTLVDAGVDVLIVDTAHAHNRGVLDMVSRLKQAVGERVDVVGGNVATRAAAAALVEAGADAVKVGVGPGSICTTRVVAGVGAPQITAILEAVAACKPYGVPVIADGGLQYSGDIAKALAAGASTAMLGSLLAGTAESPGELIFVNGKQFKSYRGMGSLGAMQGRGAAKSYSKDRYFQDDVLSEDKLVPEGIEGRVPFRGPLGTVIHQLTGGLRAAMGYTGSATIEQLQQAQFVQITAAGLKESHPHDITMTVEAPNYYTR
notes: also called MsmIMPDH; MsmGuaB2; source: E. coli BL21 RIL LOBSTR, purified (HisTrap, TEV cleavage, second HisTrap, HiTrap Q, Superdex 200); not shown: His6, N-terminal, cleaved
stoichiometry N: 8 and 4
